Numbering of substitutions follows the chain as printed. In names and notes the source's numbering stands. Read-outs that look alike come from different tables or passages of the source.
T1: WT Kapβ2 (human, UniProt Q92973-2 1-890)
T1 sequence (looked up): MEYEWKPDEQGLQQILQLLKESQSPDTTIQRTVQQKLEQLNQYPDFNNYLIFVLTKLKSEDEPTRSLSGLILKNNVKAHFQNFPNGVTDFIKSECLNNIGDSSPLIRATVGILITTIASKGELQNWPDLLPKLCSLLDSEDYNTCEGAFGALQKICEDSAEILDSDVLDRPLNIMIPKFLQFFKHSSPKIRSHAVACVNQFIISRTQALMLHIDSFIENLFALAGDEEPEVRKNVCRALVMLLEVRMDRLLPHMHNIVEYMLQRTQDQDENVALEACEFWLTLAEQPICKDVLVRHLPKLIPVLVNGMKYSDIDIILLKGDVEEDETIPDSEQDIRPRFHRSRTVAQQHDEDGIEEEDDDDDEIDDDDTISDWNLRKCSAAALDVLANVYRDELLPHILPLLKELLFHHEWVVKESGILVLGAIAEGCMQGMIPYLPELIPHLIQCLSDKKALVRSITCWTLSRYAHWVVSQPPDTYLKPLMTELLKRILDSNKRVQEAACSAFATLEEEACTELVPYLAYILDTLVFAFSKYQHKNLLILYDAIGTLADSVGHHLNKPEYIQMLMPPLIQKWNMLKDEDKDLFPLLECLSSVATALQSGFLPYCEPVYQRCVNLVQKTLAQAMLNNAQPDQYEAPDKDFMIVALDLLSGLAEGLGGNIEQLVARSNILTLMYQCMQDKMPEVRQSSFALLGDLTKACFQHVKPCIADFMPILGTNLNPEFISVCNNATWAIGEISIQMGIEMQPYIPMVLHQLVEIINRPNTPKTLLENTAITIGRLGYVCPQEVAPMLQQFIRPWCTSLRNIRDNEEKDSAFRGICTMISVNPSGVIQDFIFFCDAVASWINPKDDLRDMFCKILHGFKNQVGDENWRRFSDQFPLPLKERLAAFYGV

T2: TAMRA-(PR)20 (TAMRA label (position not given))
T2 peptide: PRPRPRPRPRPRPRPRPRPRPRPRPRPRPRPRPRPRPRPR

T3: TAMRA-(GR)20 (TAMRA label (position not given))
T3 peptide: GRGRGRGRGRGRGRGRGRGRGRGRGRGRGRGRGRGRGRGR

B1: FUS-GFP (natural protein, UniProt P35637 1-526, looked up)
chain: MASNDYTQQATQSYGAYPTQPGQGYSQQSSQPYGQQSYSGYSQSTDTSGYGQSSYSSYGQSQNTGYGTQSTPQGYGSTGGYGSSQSSQSSYGQQSSYPGYGQQPAPSSTSGSYGSSSQSSSYGQPQSGSYSQQPSYGGQQQSYGQQQSYNPPQGYGQQNQYNSSSGGGGGGGGGGNYGQDQSSMSSGGGSGGGYGNQDQSGGGGSGGYGQQDRGGRGRGGSGGGGGGGGGGYNRSSGGYEPRGRGGGRGGRGGMGGSDRGGFNKFGGPRDQGSRHDSEQDNSDNNTIFVQGLGENVTIESVADYFKQIGIIKTNKKTGQPMINLYTDRETGKLKGEATVSFDDPPSAKAAIDWFDGKEFSGNPIKVSFATRRADFNRGGGNGRGGRGRGGPMGRGGYGGGGSGGGGRGGFPSGGGGGGGQQRAGDWKCPNPTCENMNFSWRNECNQCKAPKPDGPGGGPGGSHMGGNYGDDRRGGRGGYDRGGYRGRGGDRGGFRGGRGGGDRGGFGPGKMDSRGEHRQDRRERPY
B2: Kapβ2_(W460A:W730A) (receptor, human, UniProt Q92973-2 1-890, looked up)
chain: T1 sequence (looked up) with W460A, W730A

Key:
Assay in all cases: fluorescence polarisation
Kapβ2_(W460A:W730A) = target: B2
WT Kapβ2 = target: T1, WT Kapβ2
TAMRA-(PR)20 [1] = target: T2, TAMRA-(PR)20
TAMRA-(GR)20 [2] = target: T3, TAMRA-(GR)20
TAMRA-(PR)20 [3] = target: T2, TAMRA-(PR)20
TAMRA-(GR)20 [4] = target: T3, TAMRA-(GR)20

B1
Kd (Kapβ2_(W460A:W730A)): 124 ± 58.5 nM | Kd (WT Kapβ2): 39.6 ± 17.7 nM

B2
affinity relative to that of FUS for Kapβ2_(W460A:W730A) (TAMRA-(PR)20 [1]): ~3 times | affinity relative to that of FUS for Kapβ2_(W460A:W730A) (TAMRA-(GR)20 [2]): ~3 times | affinity relative to that of FUS for Kapβ2_(W460A:W730A) (TAMRA-(PR)20 [3]): ~1.5 times | affinity relative to that of FUS for Kapβ2_(W460A:W730A) (TAMRA-(GR)20 [4]): ~1.5 times
